This note sets out measurements from patent US20130338077A1 (INDIANA UNIVERSITY RESEARCH AND TECHNOLOGY, published 2013).

The test concerns the target T1, recombinant human p65 protein, full-length, with DDK (r-p65:DDK) (human, UniProt Q04206 1-551).
T1 construct: mature; also called full-length r-p65:DDK; p65 subunit of NF-kB; not shown: DDK tag
As to the kind of experiment: kinetic ELISA, plate-bound GILZ-P probed with r-p65:DDK; Scatchard plot and linear regression; plate-bound GILZ-P (synthetic peptide), not r-GILZ.

T1 sequence (Q04206 whole entry): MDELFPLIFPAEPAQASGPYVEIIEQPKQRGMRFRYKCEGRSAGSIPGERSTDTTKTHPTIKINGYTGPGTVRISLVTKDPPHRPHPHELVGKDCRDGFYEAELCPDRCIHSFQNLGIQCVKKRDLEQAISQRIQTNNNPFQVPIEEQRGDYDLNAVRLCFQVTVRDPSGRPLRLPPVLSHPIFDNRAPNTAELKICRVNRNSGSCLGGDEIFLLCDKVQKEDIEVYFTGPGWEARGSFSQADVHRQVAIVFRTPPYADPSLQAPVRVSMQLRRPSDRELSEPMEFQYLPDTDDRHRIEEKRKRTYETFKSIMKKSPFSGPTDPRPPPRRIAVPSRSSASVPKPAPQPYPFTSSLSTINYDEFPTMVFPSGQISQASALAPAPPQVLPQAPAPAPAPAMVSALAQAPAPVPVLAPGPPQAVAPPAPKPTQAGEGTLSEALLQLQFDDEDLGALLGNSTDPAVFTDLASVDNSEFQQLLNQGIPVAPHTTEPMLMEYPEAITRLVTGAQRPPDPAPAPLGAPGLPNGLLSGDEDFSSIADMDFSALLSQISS

For Ac-CLSPEEPAPESPQVPEAPGGSAV-NH2 (also called GILZ-WT; GILZ-P115-137) [GILZ-peptide (GILZ-P), synthetic peptide from the carboxy terminus of GILZ], the Kd was determined as 1120 nM.
